Results as given in the Human Domainome abundance scans (Beltran et al. 2025).

B1: Double-stranded RNA-specific adenosine deaminase, residues 296 to 358; numbered along this chain, P55265 (parent)
chain: MAEIKEKICDYLFNVSDSSALNLAKNIGLTKARDINAVLIDMERQGDVYRQGTTPPIWHLTDK
B2: COUP transcription factor 1, residues 83 to 159; numbered along this chain, P10589 (parent)
chain: HIECVVCGDKSSGKHYGQFTCEGCKSFFKRSVRRNLTYTCRANRNCPIDQHHRNQCQYCRLKKCLKVGMRREAVQRG

Variants of: B1
Assay: abundance fitness (aPCA) (normalised: wild type 0, dead -1); higher = more abundant; growth selection in yeast, the domain comes from the species named
Details: Homo sapiens

Abundance fitness: each site, then its substitutions
L60: S -0.437 | T -0.551 | V -0.516 | W -0.793 | Y -0.577
T61: D -0.32 | E -0.483 | F -0.737 | H -0.344 | I -0.818 | M -0.182 | N -0.124 | P -0.411 | Q -0.52 | R -0.282 | S -0.052 | V -0.193 | W -0.808
D62: A 0.053 | C -0.185 | E 0.072 | G -0.19 | I -0.708 | K 0.002 | L -0.437 | M -0.409 | N -0.432 | P -0.333 | Q 0.017 | R -0.167 | S -0.083 | T -0.15 | W -0.445 | Y -0.437
K63: C -0.258 | D -0.162 | E -0.234 | F -0.217 | G -0.442 | H -0.374 | M -0.619 | N -0.302 | P -0.341 | Q -0.79 | R 0.032 | S -0.367 | T -0.297 | Y -0.634

Variants of: B2
Assay: as above
Details: Homo sapiens

Abundance fitness: each site, then its substitutions
H1: A -0.078 | C -0.258 | D 0.6 | E -0.007 | G 0.277 | K 0.374 | L 0.03 | N 0.07 | Q 0.121 | R 0.013 | S -0.33 | T 0.074 | V -0.035 | Y 0.262
I2: A -0.829 | C -0.186 | D 0.065 | E -0.379 | G -0.927 | K -0.329 | M -0.078 | N 0.05 | Q -0.714 | R -0.413 | V -0.648 | W -0.502 | Y 0.237
E3: A -0.01 | C -0.072 | D 0.006 | F -0.173 | G -0.402 | H -0.15 | I -0.108 | K -0.226 | M -0.07 | N -0.222 | P -0.279 | R -0.408 | S -0.052 | T -0.058 | V -0.536 | W -0.319
C4: A -1.04 | D -0.724 | F -0.939 | G -0.731 | H -1.23 | I -0.998 | K -0.775 | L -1.05 | M -0.521 | N -1.17 | P -0.833 | Q -1.25 | S -0.515 | T -0.635 | V -0.672 | W -0.965 | Y -0.9
V5: A 0.228 | C -0.027 | D -0.081 | E -0.042 | F 0.199 | G 0.012 | H 0.185 | I 0.314 | K 0.31 | L 0.192 | N 0.152 | P 0.381 | Q 0.252 | R 0.295 | S 0.149 | T 0.104 | W 0.003 | Y 0.393
V6: A -0.458 | D -0.736 | E -0.836 | F -0.581 | G -0.807 | I -0.074 | K -1.09 | L -0.889 | M -1.06 | P -0.705 | Q -0.802 | R -0.974 | S -0.819 | T -0.743 | W -0.545 | Y -0.439
C7: A -0.692 | D -0.867 | E -0.659 | F -0.942 | G -0.733 | I -0.912 | K -0.509 | L -0.843 | M -0.84 | N -0.562 | P -1.17 | R -0.802 | S -0.803 | T -0.95 | V -0.597 | W -0.821 | Y -0.268
G8: A 0.016 | C -0.182 | D 0.177 | H -0.22 | K 0.165 | L 0.042 | M -0.078 | N -0.045
